{"source": "patent US20150174289A1", "about": "(OMRIX BIOPHARMACEUTICALS, published 2015)", "target": "T1, fibrin monomers (UniProt P02671 36-629; P02675 45-491; P02679 27-437)", "T1 sequence (looked up) 1": "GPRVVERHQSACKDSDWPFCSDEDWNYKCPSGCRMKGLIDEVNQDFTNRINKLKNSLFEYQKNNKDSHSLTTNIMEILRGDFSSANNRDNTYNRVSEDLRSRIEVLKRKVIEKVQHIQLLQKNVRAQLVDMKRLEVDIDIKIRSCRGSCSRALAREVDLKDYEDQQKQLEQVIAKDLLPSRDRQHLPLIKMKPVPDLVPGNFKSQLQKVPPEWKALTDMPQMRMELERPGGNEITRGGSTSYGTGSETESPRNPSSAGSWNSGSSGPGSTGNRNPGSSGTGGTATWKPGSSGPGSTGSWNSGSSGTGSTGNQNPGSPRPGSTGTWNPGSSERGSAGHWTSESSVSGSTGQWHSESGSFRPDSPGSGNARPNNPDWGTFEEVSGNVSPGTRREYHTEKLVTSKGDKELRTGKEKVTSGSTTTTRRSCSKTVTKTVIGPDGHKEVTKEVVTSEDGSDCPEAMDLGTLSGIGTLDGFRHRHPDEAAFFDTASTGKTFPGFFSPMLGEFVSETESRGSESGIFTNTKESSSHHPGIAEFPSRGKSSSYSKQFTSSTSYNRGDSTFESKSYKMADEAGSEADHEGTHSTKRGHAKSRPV", "T1 sequence (looked up) 2": "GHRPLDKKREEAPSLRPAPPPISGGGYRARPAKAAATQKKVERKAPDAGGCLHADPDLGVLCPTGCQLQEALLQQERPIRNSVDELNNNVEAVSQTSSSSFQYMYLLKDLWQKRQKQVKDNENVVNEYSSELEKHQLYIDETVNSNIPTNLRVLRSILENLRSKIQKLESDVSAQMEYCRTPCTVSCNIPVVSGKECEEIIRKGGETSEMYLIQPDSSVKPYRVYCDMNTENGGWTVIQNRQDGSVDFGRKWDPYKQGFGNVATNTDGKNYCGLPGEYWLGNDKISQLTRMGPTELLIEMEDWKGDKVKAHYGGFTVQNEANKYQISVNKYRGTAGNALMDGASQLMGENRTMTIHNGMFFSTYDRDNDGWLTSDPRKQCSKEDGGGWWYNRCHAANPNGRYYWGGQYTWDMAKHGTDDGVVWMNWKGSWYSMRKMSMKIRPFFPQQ", "T1 sequence (looked up) 3": "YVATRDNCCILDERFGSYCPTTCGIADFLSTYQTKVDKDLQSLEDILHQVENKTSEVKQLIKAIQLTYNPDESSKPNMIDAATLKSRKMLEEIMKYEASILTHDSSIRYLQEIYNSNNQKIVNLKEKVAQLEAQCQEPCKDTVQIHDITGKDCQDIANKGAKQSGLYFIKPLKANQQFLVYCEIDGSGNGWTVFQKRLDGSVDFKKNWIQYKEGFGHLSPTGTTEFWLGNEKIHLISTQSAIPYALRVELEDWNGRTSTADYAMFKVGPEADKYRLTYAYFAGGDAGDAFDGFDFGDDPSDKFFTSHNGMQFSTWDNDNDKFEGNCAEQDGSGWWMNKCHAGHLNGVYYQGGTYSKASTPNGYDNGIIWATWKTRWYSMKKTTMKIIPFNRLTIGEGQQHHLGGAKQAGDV", "assay": "cell-based or functional assay"}
{"binder": "GPRP", "note": "[GPRP peptide (Gly-Pro-Arg-Pro)]", "values": [{"measurement": "Time to clot (1% fibrin monomers, 1 mM GPRP, 34 fold GPRP:fibrin)", "result": "< 5", "unit": "min"}, {"measurement": "Time to clot (1% fibrin monomers, 5 mM GPRP, 170 fold GPRP:fibrin)", "result": 4, "unit": "h"}, {"measurement": "Time to clot (1.5% fibrin monomers, 20 mM GPRP, 453 fold GPRP:fibrin)", "result": "> 2", "unit": "weeks"}, {"measurement": "Time to clot (3% fibrin monomers, 0.1 mM GPRP, 1.1 fold GPRP:fibrin)", "result": 5, "unit": "s"}, {"measurement": "Time to clot (3% fibrin monomers, 0.2 mM GPRP, 2.3 fold GPRP:fibrin)", "result": 7, "unit": "s"}, {"measurement": "Time to clot (3% fibrin monomers, 0.5 mM GPRP, 5.7 fold GPRP:fibrin)", "result": 11, "unit": "s"}, {"measurement": "Time to clot (3% fibrin monomers, 1 mM GPRP, 11.3 fold GPRP:fibrin)", "result": 13, "unit": "s"}, {"measurement": "Time to clot (3% fibrin monomers, 1.5 mM GPRP, 17 fold GPRP:fibrin)", "result": 22, "unit": "s"}, {"measurement": "Time to clot (3% fibrin monomers, 2 mM GPRP, 22.7 fold GPRP:fibrin)", "result": 28, "unit": "s"}, {"measurement": "Time to clot (3% fibrin monomers, 3 mM GPRP, 34 fold GPRP:fibrin)", "result": 2.5, "unit": "min"}, {"measurement": "Time to clot (3% fibrin monomers, 4 mM GPRP, 45 fold GPRP:fibrin)", "result": 8, "unit": "min"}, {"measurement": "Time to clot (3% fibrin monomers, 5 mM GPRP, 56.7 fold GPRP:fibrin)", "result": 15, "unit": "min"}, {"measurement": "Time to clot (3.5% fibrin monomers, 40 mM GPRP, 389 fold GPRP:fibrin)", "result": "> 2", "unit": "weeks"}]}
